Source: patent US20090010987A1, “Methods and Devices for Reducing Tissue Damage After Ischemic Injury” (Conor Medsystems, Inc., priority 2005, published 2009)

Assay: Retention of insulin bioactivity when delivered in PLGA
Assay type: physicochemical
Conditions: delivered in poly(lactide-co-glycolide) (PLGA)
Excerpt: Protein or peptide drugs can be human, non-human, recombinant or synthetic and can be the full length native form or an active fragment thereof. Preferably the insulin is a stable, short acting form which is resistant to radiation. Insulin in its crystalline form may be used for improved resistance to radiation. When the insulin is combined with a polymer, an agent may be added to preserve bioactivity. […] For substantially longer administration periods, a buffering agent such as hydroxyapatite may be used to maintain the pH as the polymer degrades to release acidic byproducts.

## Insulin: hormone which improves glycolic metabolism and ATP production; anti-ischemic agent
  period over which bioactivity is retained: at least 24 hours
